The experiment relates to AKT and S6 phosphorylation in DU145 cells. The experiment is described as follows: RNASE4-induced phosphorylation of AKT and S6 (immunoblot). The format is cell-based, human. The note with it: serum-starved DU145, RNASE4 1 μg/ml, time course. As to the method:
FIGS. 10A-E. RNASE4 induces prostate cancer cell proliferation and phosphorylation of AKT and S6. (A and B) Exogenous RNASE4 (1 μg/ml) stimulates cell proliferation (A) and cell cycle progression (B) of DU145 cells cultured in the presence of 2% FBS. Cell numbers were determined by MTT assay. Cell cycle status was determined by flow cytometry after 24 hour incubation with RNASE4. (C) Time course of AKT and S6 phosphorylation of serum-starved DU145 cells by RNASE4 (1 μg/ml). Left panels, immunoblots; right panels, quantification of p-AKT and p-S6 normalized to total AKT and S6 by Image J analysis. […] Cells were pre-incubated with the inhibitors at the indicated concentrations for 1 hour prior to be stimulated by 1 μg/ml of RNASE4 for 5 minutes. Top panels, immunoblots; bottom panels, Image J quantification of p-AKT and p-S6 normalized to total AKT and S6. (E) Effect of AKT inhibitor MK-2206, PI3K inhibitors Wortmannin and LY294002, and mTOR inhibitor Rapamycin on RNASE4-induced cell proliferation. DU145 cells were serum-starved overnight, incubated with the inhibitors for 1 hour, and then treated with RNASE4 (1 μg/ml) for three days. Cell numbers were determined by MTT assay. Data shown are from a representative experiments in triplicates of 3 independent repeats. Error bars indicate SEM. **P≤0.01, by unpaired two-tailed Student's t test.
FIGS. 12A-F. RNASE4 induces AXL phosphorylation. (A) Human phospho-receptor tyrosine kinase (RTK) antibody array analysis. Serum-starved DU145 cells were treated with or without 1 μg/ml of RNASE4 for 5 minutes. A total of 1.5 mg cell lysate protein was blotted on each array membrane. […] (B) Immunoblot analysis of RNASE4-stimulated AXL phosphorylation. DU145 cells were serum-starved overnight and treated with 1 μg/ml of RNASE4 for the indicated time. Cell lysates were analyzed by antibodies against total AXL and phospho-AXL, with β-actin as the loading control. Left panels, immunoblots; right panel, Image J quantification of p-AXL normalized to total AXL. (C) Immunoblot analysis of phospho-AXL in response to stimulation by ANG, RNase A, and RNASE4. DU145 cells were serum-starved overnight and treated with 1 μg/ml of ANG, RNase A, or RNASE4 for 15 minutes. Left panels, immunoblots; right panel, quantification. (D) Effect of AXL inhibitor R428 on RNASE4-induced cell proliferation. Serum-starved DU145 cells were incubated with 1 or 3 μM R428 for 3 hours and then stimulated by 1 μg/ml of RNASE4 for 3 days. Cell numbers were determined by MTT assay. Data shown are means±SEM of a representative experiment (in triplicates) of 3 independent repeats. **P≤0.01 and ***P≤0.001, by unpaired two-tailed Student's t test. (E) Effect of AXL inhibitor R428 on RNASE4-induced AKT and P6 phosphorylation. Serum-starved DU145 cells were incubated with 1 or 3 μM R428 for 3 hours and then stimulated by 1 μg/ml of RNASE4 for 5 minutes. Cell lysates were analyzed for AKT and P6 phosphorylation by immunoblotting. Top panels, immunoblots; bottom panels, quantification of phospho-AKT and phospho-S6 by Image J analyses normalized to total AKT and P6, respectively. (F) Schematic presentation of proposed involvement of AXL in RNASE4-stimulated cellular events.
Background: Immunoblotting shows a protein as a band on a membrane.

B1: RNASE4: recombinant human RNASE4 protein from pET11 expression in E. coli, purified by reversed-phase HPLC; added exogenously (protein, UniProt P34096 29-147, looked up)
Ribonuclease 4: QDGMYQRFLRQHVHPEETGGSDRYCNLMMQRRKMTLYHCKRFNTFIHEDIWNIRSICSTTNIQCKNGKMNCHEGVVKVTDCRDTGSSRAPNCRYRAIASTRRVVIACEGNPQVPVHFDG
As for B1, the “activation (phosphorylation) of AKT and S6” value was “rapidly and continuously activated”.
